Results from paper PMC13254535, “The RecBCD complex interacts directly with the DNA sliding clamp in Escherichia coli” (Nucleic Acids Research, 2026).
Where two headings read alike, the source gives them in different places.

How the values were obtained:
β-clamp [1] = target: T1, β-clamp (Escherichia coli, UniProt P0A988); settings: 3-AT 0.5 mM; ~29 million interaction tests
Excerpt: Yeast-two hybrid screening was outsourced to Hybrigenics (Paris, France). This service employs a high-complexity E. coli prey library (∼3 × 10^7 clones) and follows a robust mating-based screening protocol to identify binary protein interactions. Full-length E. coli dnaN (encoding β-clamp) was cloned into the Gal4 DNA-binding domain expression vector pGBKT7, which carries LEU2 and TRP1 selection markers (bait plasmid). The dnaN bait was screened against an E. coli complementary DNA/genomic prey library provided by Hybrigenics, totaling ~29 million interaction tests. Transformants were selected on medium lacking leucine, tryptophan, and histidine, supplemented with 0.5 mM of 3-amino-1,2,4-triazole (3-AT) to suppress background growth. Positive interactions were confirmed and sequenced by Hybrigenics.

β-clamp [2] = target: T1, β-clamp
Excerpt: Protein–protein interactions between RecB and β-clamp, as well as between RecB and RecA, were examined using the bacterial adenylate cyclase-based two-hybrid (BACTH) system (Euromedex), as previously described, with optimizations noted below. This system relies on the functional reconstitution of Bordetella pertussis adenylate cyclase (CyaA) fragments T25 and T18, which are genetically fused to the proteins of interest. Upon interaction of the fusion partners, cAMP production is restored in the cyaA-deficient E. coli BTH101 strain, activating downstream reporters such as lacZ and mal operons. Co-transformants were tested using one or several of the following readouts: (i) qualitative X-gal spot assay, (ii) quantitative β-galactosidase assay, and (iii) semi-quantitative growth in M63 minimal medium with maltose.
Recipient strains (BTH101 or derivatives) were streaked from glycerol stock onto LB agar plates containing streptomycin (100 µg/ml), isopropyl β-D-1-thiogalactopyranoside (IPTG) (0.5 mM), and 5-bromo-4-chloro-3-indolyl β-D-galactopyranoside (X-gal) (40 µg/ml) and incubated at 37°C until cya⁺ (blue) revertants became visible among the cya⁻ (white) colonies. Multiple white colonies were picked and cultured overnight in LB with streptomycin (100 µg/ml) at 37°C. These cultures were diluted 1:50 and expanded before electroporation.
Transformed cells were immediately recovered in 1 ml SOC at 37°C for 1.5 h with shaking and plated on LB agar supplemented with appropriate antibiotics (Table 4). Plates were incubated at 30°C for up to 3 days.
Following selection, 3–5 colonies from each transformation plate were pooled to inoculate 1 ml LB containing IPTG (0.5 mM) and the appropriate antibiotics. Cultures were incubated overnight at 30°C with shaking. The same overnight culture was used to seed all subsequent assays. The following day, cultures were diluted 1:100 into fresh LB (containing IPTG and antibiotics) and grown at 30°C to mid-exponential phase (OD600 around 0.5–0.6, measured by Nanodrop One, Thermo Fisher Scientific Inc.) before use in assays.
The X-gal spot assay was used to visualize protein−protein interactions via blue/white colorimetric readout. Mid-log cultures were serially diluted (10-fold series), and 5 µl of each dilution (including undiluted) was spotted onto LB agar containing IPTG (0.5 mM), X-gal (40 µg/ml), and selective antibiotics. To assess interaction stability under genotoxic stress, an identical plate was exposed to UV light (15 J/m^2). Plates were incubated at 30°C for 2–3 days, and images were captured with a smartphone camera.
β-galactosidase activity was quantified using a modified Miller assay adapted for 96-well format. Cultures at OD600 around 0.5–0.6 were measured again in a plate reader (Victor Nivo, PerkinElmer, Waltham, MA, USA) to account for instrument variability. Cells were pelleted, resuspended in PM2 buffer (70 mM Na2HPO4, 30 mM NaH2PO4, 1 mM MgSO4, 0.2 mM MnSO4, and 100 mM β-mercaptoethanol), and permeabilized with 0.01% (w/v) sodium dodecyl sulfate (SDS) and 10% (v/v) toluene for 45 min at 37°C. […] Absorbance at 405 nm was recorded, and β-galactosidase activity calculated in Miller Units using the following equation: […]
This assay exploits the cAMP dependence of the mal regulon, allowing only cya^+ cells with interacting fusion proteins to grow on maltose as sole carbon source. […] Cultures were incubated in triplicate at 30°C with shaking, and OD600 was measured at 24, 48, and 72 h using a plate reader. […]

[3] = test system: EH219 cells (GFP-β-clamp, RecB-HaloTag); settings: unchallenged; foci within 1 pixel (0.108 µm); three biological replicates
Experimental: Fixed cells with endogenously tagged recB and dnaN (strain EH219) were imaged. β-clamp was N-terminally tagged with green fluorescence protein (GFP) [48]
Strains were first grown overnight on LB-agar plates with kanamycin for selection. Then, 2 ml LB with kanamycin was inoculated with five plate colonies to create overnight cultures. The next day, overnight cultures were diluted 1:200 in fresh LB medium with kanamycin and cultured at 37°C until exponential growth (OD600 of 0.10). JF549-HTL (5 µM final concentration) was then added to the culture, and incubation continued for another 60 min for staining the RecB HaloTag, before washing five times with LB. […] Samples were fixed by resuspending and incubating them in PBS with 4% (v/w) formaldehyde for 60 min, followed by washing twice with PBS and resuspension in PBS for imaging.
Briefly, we used a Nikon Eclipse Ti2-E inverted microscope equipped with a 60× oil objective, a CrestOptics X-Light V3 spinning disk confocal module (50:400 µm spinning disk), a Lumencor Celeste multi-line laser and two Teledyne Photometrics Kinetix sCMOS cameras. […] Three channels were used for fluorescence imaging: a transmitted light channel for cell outlines (1 ms exposure), in addition to GFP and JF549 fluorescence channels imaged with a 50:400 µm spinning disk. […] The foci numbers per cell were quantified along with their colocalization. […]

T1 sequence (P0A988 whole entry): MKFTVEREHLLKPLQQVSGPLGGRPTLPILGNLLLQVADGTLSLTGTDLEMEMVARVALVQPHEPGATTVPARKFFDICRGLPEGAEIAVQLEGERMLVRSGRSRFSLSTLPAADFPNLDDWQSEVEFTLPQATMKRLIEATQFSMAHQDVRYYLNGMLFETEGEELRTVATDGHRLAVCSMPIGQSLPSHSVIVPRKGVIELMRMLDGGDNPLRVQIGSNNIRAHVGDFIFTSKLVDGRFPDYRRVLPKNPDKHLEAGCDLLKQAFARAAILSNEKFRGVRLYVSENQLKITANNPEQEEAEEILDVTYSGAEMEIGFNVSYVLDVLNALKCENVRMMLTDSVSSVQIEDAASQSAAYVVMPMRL

B1: RecB: wild type RecB subunit of the E. coli RecBCD complex (T18 fusion, his-tagged or HaloTag according to test) (protein)
chain: MSDVAETLDPLRLPLQGERLIEASAGTGKTFTIAALYLRLLLGLGGSAAFPRPLTVEELLVVTFTEAATAELRGRIRSNIHELRIACLRETTDNPLYERLLEEIDDKAQAAQWLLLAERQMDEAAVFTIHGFCQRMLNLNAFESGMLFEQQLIEDESLLRYQACADFWRRHCYPLPREIAQVVFETWKGPQALLRDINRYLQGEAPVIKAPPPDDETLASRHAQIVARIDTVKQQWRDAVGELDALIESSGIDRRKFNRSNQAKWIDKISAWAEEETNSYQLPESLEKFSQRFLEDRTKAGGETPRHPLFEAIDQLLAEPLSIRDLVITRALAEIRETVAREKRRRGELGFDDMLSRLDSALRSESGEVLAAAIRTRFPVAMIDEFQDTDPQQYRIFRRIWHHQPETALLLIGDPKQAIYAFRGADIFTYMKARSEVHAHYTLDTNWRSAPGMVNSVNKLFSQTDDAFMFREIPFIPVKSAGKNQALRFVFKGETQPAMKMWLMEGESCGVGDYQSTMAQVCAAQIRDWLQAGQRGEALLMNGDDARPVRASDISVLVRSRQEAAQVRDALTLLEIPSVYLSNRDSVFETLEAQEMLWLLQAVMTPERENTLRSALATSMMGLNALDIETLNNDEHAWDVVVEEFDGYRQIWRKRGVMPMLRALMSARNIAENLLATAGGERRLTDILHISELLQEAGTQLESEHALVRWLSQHILEPDSNASSQQMRLESDKHLVQIVTIHKSKGLEYPLVWLPFITNFRVQEQAFYHDRHSFEAVLDLNAAPESVDLAEAERLAEDLRLLYVALTRSVWHCSLGVAPLVRRRGDKKGDTDVHQSALGRLLQKGEPQDAAGLRTCIEALCDDDIAWQTAQTGDNQPWQVNDVSTAELNAKTLQRLPGDNWRVTSYSGLQQRGHGIAQDLMPRLDVDAAGVASVVEEPTLTPHQFPRGASPGTFLHSLFEDLDFTQPVDPNWVREKLELGGFESQWEPVLTEWITAVLQAPLNETGVSLSQLSARNKQVEMEFYLPISEPLIASQLDTLIRQFDPLSAGCPPLEFMQVRGMLKGFIDLVFRHEGRYYLLDYKSNWLGEDSSAYTQQAMAAAMQAHRYDLQYQLYTLALHRYLRHRIADYDYEHHFGGVIYLFLRGVDKEHPQQGIYTTRPNAGLIALMDEMFAGMTLEEA
modifications: left off: T18 (Bordetella pertussis CyaA fragment), N-terminal, kept
- yeast two-hybrid interaction with β-clamp (β-clamp [1]): possible interaction
- interaction strength relative to RecB–RecC positive control (β-clamp [2]): comparable to the RecB–RecC positive control interaction
- interaction with β-clamp, β-galactosidase activity (β-clamp [2]): abolished
- interaction with β-clamp, β-galactosidase activity (β-clamp [2]; BTH101 wild-type and ΔrecB backgrounds, 24 h, relative to empty vector negative control): distinct interaction
- interaction with β-clamp, β-galactosidase activity (β-clamp [2]; BTH101 ΔrecA): initially appeared absent
- interaction with β-clamp, M63/maltose growth (β-clamp [2]; BTH101 ΔrecA, M63/maltose variant, longer incubation): the interaction was apparent also in the ΔrecA strain
- cells showing RecB–β-clamp colocalization [3]: around 32%
